Assay results as given in patent US20220160939A1, “SELF-ASSEMBLING PEPTIDES AS BRONCHIAL OBSTRUCTION AGENTS” (3-D MATRIX, LTD., priority 2014, published 2022).

Experiments:
[1] = Appearance of 1.5% peptide solutions with various salts at room temperature; assay type: physicochemical; conditions: for Appearance: room temperature
Method: The effect of salt ionic strength level on the properties of peptide solutions was evaluated to identify optimized salt ionic strength levels for the peptides as described herein. Increasing the salt ionic strength level of PuraMatrix® (SEQ ID NO:1) and other peptides may generally improve its function and mechanical strength for various clinical applications. To adjust the salt ionic strength of the peptide solutions by way of example, various salt buffer solutions including NaCl, KCl, MgCl2, CaCl2 and DPBS (10×) were added to 2 mL of 1.5% peptide solutions.

[2] = Rheological properties of peptide solutions at adjusted salt ionic strength; assay type: physicochemical
Method: Based on the visual observation of the effect of salt ionic strength on the properties of the peptide solutions, the effect on the rheological properties of the peptide solutions after adjusting their ionic strength level with NaCl to 0.7 M (PuraMatrix® (SEQ ID NO:1)), 0.2 M (KLD12 (SEQ ID NO:3)) or 0.02 M (IEIK13 (SEQ ID NO:2)), which is closely below the critical ionic strength at which each peptide becomes cloudy, was evaluated. If the ionic strength levels with NaCl of peptide solutions are higher than 0.9 M (PuraMatrix® (SEQ ID NO:1)), 0.3 M (KLD12 (SEQ ID NO:3)) or 0.03 M (IEIK13 (SEQ ID NO:2)), the peptide solutions begin phase separation becoming cloudy and weak. The rheological property of PuraMatrix® (SEQ ID NO:1), KLD12 (SEQ ID NO:3) and IEIK13 (SEQ ID NO:2) solutions was higher after adjusting their ionic strength level with NaCl to 0.7 M (PuraMatrix® (SEQ ID NO:1)), 0.2 M (KLD12 (SEQ ID NO:3)) or 0.02 M (IEIK13 (SEQ ID NO:2)). The results are shown in FIG. 10 for KLD12 (SEQ ID NO:3) 1%, FIG. 11 for IEIK13 (SEQ ID NO:2) 1%, and FIG. 12 for PuraMatrix® (SEQ ID NO:1) 1%, respectively. Frequency sweep tests were performed from 1 rad/s to 10 rad/s at 1 Pa.
Based on the results of the effect on the rheological properties of the peptide solutions after adjusting their ionic strength level with NaCl to 0.7 M (PuraMatrix® (SEQ ID NO:1)), 0.2 M (KLD12 (SEQ ID NO:3)) or 0.02 M (IEIK13 (SEQ ID NO:2)), the effect on the rheological properties of the peptide solution at various salt ionic strengths was evaluated. […] The results are shown in FIG. 13 for PuraMatrix® (SEQ ID NO:1) 1% solutions and in FIG. 14 for IEIK13 (SEQ ID NO:2) 1% solutions. Frequency sweep tests were performed from 1 rad/sec to 10 rad/sec at 1 Pa and the storage modulus at 1 rad/sec was selected for data.
Based on the results of the effect on the rheological properties of the peptide solutions and hydrogels after adjusting their ionic strength levels with NaCl, the effect of various salts (KCl, MgCl2, and CaCl2) was also evaluated. The rheological property of PuraMatrix® (SEQ ID NO:1) solutions increases with ionic strength adjustment at 0.15 M of all the salts. Increases of the rheological property of PuraMatrix® (SEQ ID NO:1) solutions with various salts were not predominantly different. However, increases of the rheological property of PuraMatrix® (SEQ ID NO:1) solutions may vary depending on the salting out constant, K of each salt. Constant K is a constant in Cohen's equation: log S=B−KI, where S is solubility, B is idealized solubility, K is salting out constant, and I is ionic strength. With a higher value of constant K and ionic strength of salts, solubility of the peptide may decrease resulting in strong peptide self-assembly with increased hydrophobic effect and higher rheological properties of the peptide solution. The constant K of NaCl may be higher than the other salts. […] The results are shown in FIG. 17 for PuraMatrix® (SEQ ID NO:1) 1% solution before DMEM treatment, and in FIG. 18 for PuraMatrix® (SEQ ID NO:1) 1% hydrogels after DMEM treatment for 10 min Frequency sweep tests were performed from 1 rad/sec to 10 rad/sec at 1 Pa and the storage modulus at 1 rad/sec was selected for data.

Arg-Ala-Asp-Ala-Arg-Ala-Asp-Ala-Arg-Ala-Asp-Ala-Arg-Ala-Asp-Ala [PuraMatrix ®]
critical salt ionic strengths at which peptides become cloudy [1]: 0.9˜1.2 M
Appearance ([1]; CaCl2 0 M, ionic strength 0 M, conc. 1.5%): Clear, thick gel
Appearance ([1]; CaCl2 0.05 M, ionic strength 0.15 M, conc. 1.48%): Clear, thick, stiffer gel
Appearance ([1]; CaCl2 0.1 M, ionic strength 0.3 M, conc. 1.45%): Clear, thick, stiffer gel
Appearance ([1]; CaCl2 0.15 M, ionic strength 0.45 M, conc. 1.43%): Clear, thick, stiffer gel
Appearance ([1]; CaCl2 0.2 M, ionic strength 0.6 M, conc. 1.4%): Clear, thick, stiffer gel
Appearance ([1]; CaCl2 0.25 M, ionic strength 0.75 M, conc. 1.38%): Clear, thick, stiffer gel
Appearance ([1]; CaCl2 0.3 M, ionic strength 0.9 M, conc. 1.35%): Clear, thick, stiffer gel
Appearance ([1]; CaCl2 0.35 M, ionic strength 1.05 M, conc. 1.32%): Clear, thick, stiffer gel
Appearance ([1]; CaCl2 0.383 M, ionic strength 1.15 M, conc. 1.31%): Clear, thick, stiffer gel
Appearance ([1]; CaCl2 0.4 M, ionic strength 1.2 M, conc. 1.3%): Slightly cloudy, thick, stiffer gel
Appearance ([1]; CaCl2 0.417 M, ionic strength 1.25 M, conc. 1.29%): Slightly cloudy, brittle gel
Appearance ([1]; CaCl2 0.433 M, ionic strength 1.3 M, conc. 1.28%): Cloudy, phase-separated
Appearance ([1]; DPBS (pH 3.2) 0 M, ionic strength 0 M, conc. 1.5%): Clear, thick gel
Appearance ([1]; DPBS (pH 3.2) 0.15 M, ionic strength 0.15 M, conc. 1.35%): Clear, thick, stiffer gel
Appearance ([1]; DPBS (pH 3.2) 0.3 M, ionic strength 0.3 M, conc. 1.2%): Clear, thick, stiffer gel
Appearance ([1]; DPBS (pH 3.2) 0.45 M, ionic strength 0.45 M, conc. 1.05%): Clear, thick, stiffer gel
Appearance ([1]; DPBS (pH 3.2) 0.6 M, ionic strength 0.6 M, conc. 0.9%): Clear, thick, stiffer gel
Appearance ([1]; DPBS (pH 3.2) 0.75 M, ionic strength 0.75 M, conc. 0.75%): Clear, thick, stiffer gel
Appearance ([1]; DPBS (pH 3.2) 0.9 M, ionic strength 0.9 M, conc. 0.6%): Clear, thick, stiffer gel
Appearance ([1]; DPBS (pH 3.2) 0.95 M, ionic strength 0.95 M, conc. 0.55%): Slightly cloudy, brittle gel
Appearance ([1]; DPBS (pH 3.2) 1.0 M, ionic strength 1.0 M, conc. 0.5%): Cloudy, phase-separated
Appearance ([1]; KCl 0 M, ionic strength 0 M, conc. 1.5%): Clear, thick gel
Appearance ([1]; KCl 0.15 M, ionic strength 0.15 M, conc. 1.43%): Clear, thick, stiffer gel
Appearance ([1]; KCl 0.3 M, ionic strength 0.3 M, conc. 1.35%): Clear, thick, stiffer gel
Appearance ([1]; KCl 0.45 M, ionic strength 0.45 M, conc. 1.27%): Clear, thick, stiffer gel
Appearance ([1]; KCl 0.6 M, ionic strength 0.6 M, conc. 1.2%): Clear, thick, stiffer gel
Appearance ([1]; KCl 0.75 M, ionic strength 0.75 M, conc. 1.13%): Clear, thick, stiffer gel
Appearance ([1]; KCl 0.9 M, ionic strength 0.9 M, conc. 1.05%): Clear, thick, stiffer gel
Appearance ([1]; KCl 0.95 M, ionic strength 0.95 M, conc. 1.03%): Clear, thick, stiffer gel
Appearance ([1]; KCl 1.0 M, ionic strength 1.0 M, conc. 1.0%): Clear, thick, stiffer gel
Appearance ([1]; KCl 1.05 M, ionic strength 1.05 M, conc. 0.98%): Slightly cloudy, thick, stiffer gel
Appearance ([1]; KCl 1.1 M, ionic strength 1.1 M, conc. 0.95%): Slightly cloudy, brittle gel
Appearance ([1]; KCl 1.15 M, ionic strength 1.15 M, conc. 0.93%): Cloudy, phase-separated
Appearance ([1]; MgCl2 0 M, ionic strength 0 M, conc. 1.5%): Clear, thick gel
Appearance ([1]; MgCl2 0.05 M, ionic strength 0.15 M, conc. 1.48%): Clear, thick, stiffer gel
Appearance ([1]; MgCl2 0.1 M, ionic strength 0.3 M, conc. 1.45%): Clear, thick, stiffer gel
Appearance ([1]; MgCl2 0.15 M, ionic strength 0.45 M, conc. 1.43%): Clear, thick, stiffer gel
Appearance ([1]; MgCl2 0.2 M, ionic strength 0.6 M, conc. 1.4%): Clear, thick, stiffer gel
Appearance ([1]; MgCl2 0.25 M, ionic strength 0.75 M, conc. 1.38%): Clear, thick, stiffer gel
Appearance ([1]; MgCl2 0.3 M, ionic strength 0.9 M, conc. 1.35%): Clear, thick, stiffer gel
Appearance ([1]; MgCl2 0.35 M, ionic strength 1.05 M, conc. 1.32%): Clear, thick, stiffer gel
Appearance ([1]; MgCl2 0.383 M, ionic strength 1.15 M, conc. 1.31%): Clear, thick, stiffer gel
Appearance ([1]; MgCl2 0.4 M, ionic strength 1.2 M, conc. 1.3%): Slightly cloudy, thick, stiffer gel
Appearance ([1]; MgCl2 0.417 M, ionic strength 1.25 M, conc. 1.29%): Slightly cloudy, brittle gel
Appearance ([1]; MgCl2 0.433 M, ionic strength 1.3 M, conc. 1.28%): Cloudy, phase-separated
Appearance ([1]; NaCl 0 M, ionic strength 0 M, conc. 1.5%): Clear, thick gel
Appearance ([1]; NaCl 0.15 M, ionic strength 0.15 M, conc. 1.43%): Clear, thick, stiffer gel
Appearance ([1]; NaCl 0.3 M, ionic strength 0.3 M, conc. 1.35%): Clear, thick, stiffer gel
Appearance ([1]; NaCl 0.45 M, ionic strength 0.45 M, conc. 1.27%): Clear, thick, stiffer gel
Appearance ([1]; NaCl 0.6 M, ionic strength 0.6 M, conc. 1.2%): Clear, thick, stiffer gel
Appearance ([1]; NaCl 0.75 M, ionic strength 0.75 M, conc. 1.13%): Clear, thick, stiffer gel
Appearance ([1]; NaCl 0.8 M, ionic strength 0.8 M, conc. 1.10%): Clear, thick, stiffer gel
Appearance ([1]; NaCl 0.85 M, ionic strength 0.85 M, conc. 1.08%): Clear, thick, stiffer gel
Appearance ([1]; NaCl 0.9 M, ionic strength 0.9 M, conc. 1.05%): Slightly cloudy, brittle gel
Appearance ([1]; NaCl 0.95 M, ionic strength 0.95 M, conc. 1.03%): Cloudy, phase-separated
Appearance ([1]; NaCl 1.0 M, ionic strength 1.0 M, conc. 1.0%): Cloudy, phase-separated
salt ionic strength increase that did not change the clear color, while apparent stiffness increased ([1]; depending on different salts, 1.5% peptide solutions): 0.85˜1.15 M
rheological property of solutions with ionic strength adjustment ([2]; 0.15 M ionic strength of all the salts (NaCl, KCl, MgCl2, CaCl2), 1% solution): increases
rheological property of solutions with NaCl versus KCl and CaCl2 ([2]; 0.15 M ionic strength, 1% solution): slightly higher
ionic strength up to which the rheological property of 1% solutions increases (decreases above) ([2]; 1% solutions, storage modulus at 1 rad/sec): up to 0.7 M
ionic strength level with NaCl above which solutions begin phase separation becoming cloudy and weak ([2]; NaCl): higher than 0.9 M
rheological property after adjusting ionic strength level with NaCl ([2]; NaCl to 0.7 M (PuraMatrix), 0.2 M (KLD12) or 0.02 M (IEIK13), 1% solutions): higher
